# B1: PaD2HGDH (E-Zn^2+ and E-Co^2+) (Pseudomonas aeruginosa PAO1) (protein)
# chain: MTREALIESLKPLVEPGKLLDDAASLDAYGKDWTKHFAPAPLAIVFPKSVEQVQAIVRWANQHKVGLVPSGGRTGLSAAAVAANGEVVVAFDYMNRILDFNAFDRTVVCQPGVVTKQLQTFAEENGLYYPVDFASSGSSQIGGNIGTNAGGIKVIRYGMTRNWVAGMKVVTGKGDLLELNKDLIKNATGYDMRQLFIGAEGTLGFVVEATMRLERTPKNLTAMVLGTPDFDSIMPVLHAFQSKLDLTAFEFFSDKALAKVLARGDVPRAFETDCPFYALLEFEATTEEVANEALATFEHCVEQGWVLDGVMSQSEQQLQNLWKLREYISETISHWTPYKNDISVTVSRVPAFLKDIDAIVEANYPDFEVVWFGHIGDGNLHLNILKPENLGKDEFFAKCATVNKWVFETVEKYNGSISAEHGVGMTKRDYLTYTRSETEIAYMKALKAVFDPNGIMNPGKIFAE
# notes: FAD enzyme
# What was measured:
# [1] = substrate: O=C(O)CC[C@@H](O)C(=O)O; assay: steady-state oxygen consumption, Clark-type electrode; format: biochemical, Pseudomonas aeruginosa; details: E-Zn2+, PMS as co-substrate, 25 mM NaPO4, pH 7.4, 25 °C
# Description: (§1) steady-state oxygen consumption, Clark-type electrode on PaD2HGDH (E-Zn^2+ and E-Co^2+)
# [2] = substrate: O=C(O)C[C@@H](O)C(=O)O; assay: as above; format: biochemical, Pseudomonas aeruginosa; details: E-Zn2+, PMS as co-substrate, 25 mM NaPO4, pH 7.4, 25 °C
# Description: as §1
protein,measurement,setting,value
B1,Km,[1],0.08 ± 0.01 mM
same,kcat,[1],26 ± 1 s⁻¹
same,kcat/Km,[1],330000 ± 43000 M⁻¹ s⁻¹
same,Km,[2],6.0 ± 0.6 mM
same,kcat,[2],52 ± 2 s⁻¹
same,kcat/Km,[2],9000 ± 900 M⁻¹ s⁻¹
